# Reference: paper PMC7144908
# Target: SV40 large T antigen (Tag) (Simian virus 40) (UniProt P03070)
# Assay: DSF
# Sequence of SV40 large T antigen (Tag) (Simian virus 40) (P03070 whole entry): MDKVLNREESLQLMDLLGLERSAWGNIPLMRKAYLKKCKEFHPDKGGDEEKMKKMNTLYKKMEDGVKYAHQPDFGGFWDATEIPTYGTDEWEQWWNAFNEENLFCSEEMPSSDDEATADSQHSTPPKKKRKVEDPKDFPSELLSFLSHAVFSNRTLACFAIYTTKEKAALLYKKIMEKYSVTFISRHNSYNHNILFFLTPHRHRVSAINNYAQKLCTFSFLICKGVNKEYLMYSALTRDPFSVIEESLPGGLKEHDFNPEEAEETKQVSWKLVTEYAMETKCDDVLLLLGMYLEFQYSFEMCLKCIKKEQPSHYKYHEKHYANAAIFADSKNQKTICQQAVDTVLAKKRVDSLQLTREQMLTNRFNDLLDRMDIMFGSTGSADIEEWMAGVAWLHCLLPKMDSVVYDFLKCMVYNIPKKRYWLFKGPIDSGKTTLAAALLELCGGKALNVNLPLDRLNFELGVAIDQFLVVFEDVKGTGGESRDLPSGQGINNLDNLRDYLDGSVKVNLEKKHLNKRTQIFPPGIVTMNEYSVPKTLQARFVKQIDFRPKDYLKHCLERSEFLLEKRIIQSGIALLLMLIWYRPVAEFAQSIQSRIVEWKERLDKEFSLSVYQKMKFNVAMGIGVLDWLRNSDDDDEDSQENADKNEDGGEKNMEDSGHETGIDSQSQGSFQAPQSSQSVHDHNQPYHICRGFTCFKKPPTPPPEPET
substance,measurement,value
Poly(dT),Kd,40 nM
